Experimental data as given in patent publication US20070172504A1, “In vivo cell surface engineering” (University of Lousville Research Foundation, Inc., priority 2005, published 2007).

Key:
LLC cells = test: ex vivo co-display of fusion proteins on biotinylated LLC cells (flow cytometry); assay type: cell-based; details: 15 μM biotin, 100 ng/protein/10^6 cells
Method: (§1) Engineering of cell surfaces. LLC or A20 tumor cells are washed with ice-cold PBS and incubated at 2×10^7 cells/ml in PBS, pH 8.0, containing 5-15 μM EZ-Link™ Sulfo-NHS-LC-Biotin (Pierce) at room temperature for 30 min. Cells are washed extensively and incubated at 1×10^6 cell/ml with 100 ng/purified immune co-stimulatory-streptavidin fusion protein for 45 min at 4° C. After extensive washing with PBS, cells are processed for flow cytometric analysis to assess the cells engineered with the immune co-stimulatory fusion proteins. Such cells also are used for functional studies in vitro. Cells are irradiated at 100 Gy prior to being used in in vitro studies.
One million LLC cells were biotinylated using 15 μM of EZ-Link™ Sulfo-NHS-LC-Biotin derivative from Pierce Biotechnology, Inc. (Rockford, Ill.) in PBS at room temperature for 20-30 minutes. Biotin was then removed by centrifugation, cells were washed once, transferred into a clean second tube, washed 1-2 more times, and then contacted with CD80-CSA and 4-1BBL-CSA fusion proteins at 100 ng/protein/10^6 cells in PBS for 30-45 minutes on ice. Cells were then washed extensively and used for staining with saturating concentrations of various fluorochrome-conjugated antibodies to CD80 and 4-1BBL in PBS by incubation on ice for 30-45 minutes. Cells were then washed extensively with FACS medium and used for flow cytometric analysis. […] FIG. 8.

A20 cells [1] = test: ex vivo co-display of fusion proteins on biotinylated A20 cells (flow cytometry); assay type: cell-based; details: 5 μM biotin, 100 ng/protein/10^6 cells
Method: as §1
A20 cells were biotinylated (5 μM) and then contacted with CD80-CSA and 4-1BBL-CSA fusion proteins at 100 ng/protein/10^6 cells, following procedures similar to those set forth above.

CD4^+ or CD8^+ T cells = test: proliferation of CFSE-labeled T cells against A20 cells decorated with 4-1BBL; assay type: cell-based, C57B/6 (H2-K^b) mice; details: 4:1 ratio, 4 days co-culture, flow cytometry
Method: CD4^+ and CD8^+ T cells were FACS-sorted from spleens and lymph nodes of naïve C57B/6 (H2-K^b) mice and were stained with carboxyfluorescein diacetate succinimidylester (CFSE). Briefly, cells were washed with PBS, incubated in 4 ml of 2.5 μM CFSE/1×10^6 cells for 7 minutes at room temperature. Cells were then incubated in two volumes of FBS for 1 min, and washed 2 times with PBS. A20 B lymphoma cells (H2-K^d) were washed in PBS and biotinylated using freshly prepared EZ-Link Sulfo-NHS-LC-Biotin in PBS (1 ml solution per 50×10^6 cells) for 30 min at room temperature. After washing with PBS, cells were irradiated at 10000 cGy. Biotinylated and irradiated A20 cells were incubated with CSA-4-1BBL (100 ng/1×10^6cells) or control protein CSA (38 ng/1×10^6 cells) in 5 ml tubes for 30 minutes in a cold room. After washing the cells extensively, some of the cells were stained with fluorochrome conjugated antibodies against 4-1BBL and streptavidin to detect the decoration, or with fluorochrome conjugated streptavidin to detect biotinylation. […]
Proliferation of T cells were determined using flow cytometry after staining cells with fluorochrome conjugated anti-CD4 or anti-CD8 antibodies.

splenocytes = test: in vivo kinetics of protein display on ex vivo engineered splenocytes; details: 15 μM biotin, 100 ng/1×10^6 cells, injected intravenously into syngeneic animals
Method: The kinetics of persistence of the exogenous proteins on the cell surface was determined in vivo. Splenocytes were modified with biotin (15 μM), engineered with an CD80-CSA fusion protein (100 ng/1×10^6 cells), labeled with CFSE, and injected intravenously into syngeneic animals. Splenocytes and LN cells were harvested various days post-injection and analyzed for the presence of fusion protein on CFSE positive cells. CD80-CSA persisted on the surface of splenocytes with a t1/2 of >10 days. FIG. 9.

A20 B lymphoma cells [2] = test: quantification of CD80-CSA molecules displayed per cell (Quantum-27 MESF kit); assay type: cell-based; details: 5 μM biotin, 100 ng protein
Method: Cells were stained with phycoerythrin (PE) conjugated anti-human CD80 antibody. The Quantum-27 MESF kit from Bangs Laboratories was used to estimate the number of CD80-CSA molecules per cell. Molecules of equivalent soluble fluorochrome (MESF) for the samples were calculated according to the calibration curve constructed by five MESF beads with varying MESF values (0, 727, 2737, 10110, 41738) using Cell Quest analysis program (Becton Dickinson Biosciences). The data for each sample was converted into MESF values. FIG. 10.

[3] = system: peripheral blood lymphocytes from healthy volunteers; test: MLTR assay with tumor cells engineered with CD80-CSA; assay type: cell-based, human; details: HEC-1-A endometrial cancer cell line engineered with CD80-CSA
A20 B lymphoma cells [4] = test: in vivo engineering of solid A20 tumors (intratumoral biotin, then CD80-CSA); set-up: species or system Balb/c mice
Method: One million live A20 B lymphoma cells were injected subcutaneously to the right flank of naïve syngeneic Balb/c mice. When the tumor size reached 7-9 mm in diameter, 300 μL of 1 mM EZ-Link Sulfo-NHS-LC-Biotin in PBS was injected into the tumor, followed 24 hrs later by intratumoral injection of 40 μg of CD80-CSA fusion protein in 150 μL PBS. Tumor cells were harvested and analyzed 24 hrs after protein injection. Biotin levels were detected by streptavidin-APC and fusion protein levels were detected by an antibody against CD80. Cells from untreated tumors and biotinylated tumors were used as negative controls for biotin and CD80, respectively.

A20 cells [5] = test: effect of timing of CD80-CSA administration after biotinylation of A20 tumors; assay type: in vivo, BALB/c mice
Method: A similar protocol was followed to evaluate the effect of the timing of the CD80-CSA administration subsequent to biotinylation. 1×10^6 A20 cells were injected subcutaneously into the right back flank of naïve BALB/c mice. Tumor growth was monitored and measured using calipers three times a week. When the tumor size reached 7-9 mm average diameter, 300 μl of 5 mM biotin solution (EZ-Link Sulfo-NHS-LC-Biotin in PBS) was injected into the tumors. At 2, 4, 8 or 16 hours after biotin injection, biotinylation was assessed as described above and 50 μg of CD80-SA was administered by intratumoral injection. (Some animals were left untreated as negative controls.) Animals were euthanized 16 hours after CD80-SA injection. Tumors were processed into single cell suspensions, and fusion protein levels were detected by an antibody against CD80 using flow cytometry. The results (FIG. 16) show a greater percentage of biotinylated cells decorated when the fusion protein was administered 16 hours after biotin administration, with 62% of biotinylated cells being decorated, compared to 49%, 31% and 10% at 8, 4 and 2 hours post-biotin administration, respectively.

B1: 4-1BBL-CSA: CSA-murine 4-1 BBL fusion protein (SEQ ID NOs 5 and 6) (protein)
chain: FMQLKGGSDLNMKLCILLAVVAFVGLSLGRSHHHHHHITGTWYNQLGSTFIVTAGADGALTGTYESAVGNAESRYVLTGRYDSAPATDGSGTALGWTVAWKNNYRNAHSATTWSGQYVGGAEARINTQWLLTSGATEANAWKSTLVGHDTFTKVKPSAASSEFRTEPRPALTITTSPNLGTRENNADQVTPVSHIGCPNTTQQGSPVFAKLLAKNQASLCNTTLNWHSQDGAGSSYLSQGLRYEEDKKELVVDSPGLYYVFLELKLSPTFTNTGHKVQGWVSLVLQAKPQVDDFDNLALTVELFPCSMENKLVDRSWSQLLLLKAGHRLSVGLRAYLHGAQDAYRDWELSYPNTTSFGLFLVKPDNPWE
display on the surface of tumor cells (LLC cells): co-displayed on the surface of tumor cells at comparable levels | display on the surface of tumor cells (A20 cells [1]): co-displayed on the surface of tumor cells at comparable levels | proliferative response of T cells against decorated A20 cells (CD4^+ or CD8^+ T cells): 52.6%

B2: CD80-CSA: chimeric protein comprising the extracellular domain of human B7.1 (CD80) and core streptavidin (SEQ ID NO:4) (protein)
chain: SPVQLKGGSDLNMKLCILLAVVAFVGLSLGRSIHVTKEVKEVATLSCGHNVSVEELAQTRIYWQKEKKMVLTMMSGDMNIWPEYKNRTIFDITNNLSIVILALRPSDEGTYECVVLKYEKDAFKREHLAEVTLSVKADFPTPSISDFEIPTSNIRRIICSTSGGFPEPHLSWLENGEELNAINTTVSQDPETELYAVSSKLDFNMTTNHSFMCLIKYGHLRVNQTFNWNTTKQERSHHHHHHITGTWYNQLGSTFIVTAGADGALTGTYESAVGNAESRYVLTGRYDSAPATDGSGTALGWTVAWKNNYRNAHSATTWSGQYVGGAEARINTQWLLTSGATEANAWKSTLVGHDTFTKVKPSAASSRILQISSTVAAARV
display on the surface of tumor cells (LLC cells): co-displayed on the surface of tumor cells at comparable levels | display on the surface of tumor cells (A20 cells [1]): co-displayed on the surface of tumor cells at comparable levels | t1/2 of persistence on the surface of splenocytes in vivo (splenocytes): > 240 h | average number of molecules per cell (A20 B lymphoma cells [2]): 118,000 molecules per cell | proliferative response of peripheral blood lymphocytes [3]: potent proliferative responses | tumor cells positive for CD80 (A20 B lymphoma cells [4]; 40 μg intratumorally 24 hrs after biotin, 24 hrs after protein injection): 81% | biotin positive cells displaying protein (A20 B lymphoma cells [4]; I mM biotin followed by 40 μg 24 hrs later): > 80% | biotinylated cells being decorated (A20 cells [5]; 50 μg intratumorally 2 hours after 5 mM biotin): 10% | biotinylated cells being decorated (A20 cells [5]; 50 μg intratumorally 4 hours after 5 mM biotin): 31% | biotinylated cells being decorated (A20 cells [5]; 50 μg intratumorally 8 hours after 5 mM biotin): 49% | biotinylated cells being decorated (A20 cells [5]; 50 μg intratumorally 16 hours after 5 mM biotin): 62%
